Starred links: 1 amine or outer side, 2 acyl side, 3 side chain; linkers in the order of their positions; H or OH if unused. Non-standard residues stand in square brackets, D forms with d. Groups on a side chain read outwards from the residue. No end group written: not given here. *: point of attachment. C15 diacid = O=C(O)CCCCCCCCCCCCCC(=O)*; γGlu = O=C(O)[C@H](CCC(=O)[*:2])N[*:1]; NMeY = CN[C@@H](Cc1ccc(O)cc1)C(=O)O; AEEA = NCCOCCOCC(=O)O; Aib = CC(C)(N)C(=O)O
T1: full-length human GIPR with an N-terminal FLAG tag (human, UniProt P48546 22-466)
T1 sequence (looked up): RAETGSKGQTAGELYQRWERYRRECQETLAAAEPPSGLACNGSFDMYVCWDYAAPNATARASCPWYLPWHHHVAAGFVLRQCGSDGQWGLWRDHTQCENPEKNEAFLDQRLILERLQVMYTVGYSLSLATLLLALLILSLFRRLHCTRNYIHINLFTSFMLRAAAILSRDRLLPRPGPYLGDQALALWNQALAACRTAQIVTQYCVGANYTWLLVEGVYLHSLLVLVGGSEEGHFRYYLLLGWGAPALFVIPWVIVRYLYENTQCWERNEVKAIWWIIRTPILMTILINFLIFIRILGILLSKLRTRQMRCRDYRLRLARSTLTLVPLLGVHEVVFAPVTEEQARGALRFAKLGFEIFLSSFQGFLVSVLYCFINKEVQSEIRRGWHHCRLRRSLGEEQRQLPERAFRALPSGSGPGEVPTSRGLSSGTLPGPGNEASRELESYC

B1: Compound 98 (peptide)
peptide: [NMeY][Aib]EGTFISDYSIALDR[Aib]AQ[Aib]DFVNWLLAK([AEEA-AEEA-γGlu-C15 diacid])SPSSG-NH2
modifications: N-terminus assumed
SMILES: CC[C@H](C)[C@H](NC(=O)[C@H](CO)NC(=O)[C@H](Cc1ccc(O)cc1)NC(=O)[C@H](CC(=O)O)NC(=O)[C@H](CO)NC(=O)[C@@H](NC(=O)[C@H](Cc1ccccc1)NC(=O)[C@@H](NC(=O)CNC(=O)[C@H](CCC(=O)O)NC(=O)C(C)(C)NC(=O)[C@H](Cc1ccc(O)cc1)NC)[C@@H](C)O)[C@@H](C)CC)C(=O)N[C@@H](C)C(=O)N[C@@H](CC(C)C)C(=O)N[C@@H](CC(=O)O)C(=O)N[C@@H](CCCNC(=N)N)C(=O)NC(C)(C)C(=O)N[C@@H](C)C(=O)N[C@@H](CCC(N)=O)C(=O)NC(C)(C)C(=O)N[C@@H](CC(=O)O)C(=O)N[C@@H](Cc1ccccc1)C(=O)N[C@H](C(=O)N[C@@H](CC(N)=O)C(=O)N[C@@H](Cc1c[nH]c2ccccc12)C(=O)N[C@@H](CC(C)C)C(=O)N[C@@H](CC(C)C)C(=O)N[C@@H](C)C(=O)N[C@@H](CCCCNC(=O)COCCOCCNC(=O)COCCOCCNC(=O)CC[C@H](NC(=O)CCCCCCCCCCCCCC(=O)O)C(=O)O)C(=O)N[C@@H](CO)C(=O)N1CCC[C@H]1C(=O)N[C@@H](CO)C(=O)N[C@@H](CO)C(=O)NCC(N)=O)C(C)C
B2: Compound 92 (peptide)
peptide: [NMeY][Aib]EGTFISDYSIALDR[Aib]AQ[Aib]K([AEEA-AEEA-γGlu-C15 diacid])FVNWLLAQSPSSGAPPPS-NH2
modifications: N-terminus assumed
SMILES: CC[C@H](C)[C@H](NC(=O)[C@H](CO)NC(=O)[C@H](Cc1ccc(O)cc1)NC(=O)[C@H](CC(=O)O)NC(=O)[C@H](CO)NC(=O)[C@@H](NC(=O)[C@H](Cc1ccccc1)NC(=O)[C@@H](NC(=O)CNC(=O)[C@H](CCC(=O)O)NC(=O)C(C)(C)NC(=O)[C@H](Cc1ccc(O)cc1)NC)[C@@H](C)O)[C@@H](C)CC)C(=O)N[C@@H](C)C(=O)N[C@@H](CC(C)C)C(=O)N[C@@H](CC(=O)O)C(=O)N[C@@H](CCCNC(=N)N)C(=O)NC(C)(C)C(=O)N[C@@H](C)C(=O)N[C@@H](CCC(N)=O)C(=O)NC(C)(C)C(=O)N[C@@H](CCCCNC(=O)COCCOCCNC(=O)COCCOCCNC(=O)CC[C@H](NC(=O)CCCCCCCCCCCCCC(=O)O)C(=O)O)C(=O)N[C@@H](Cc1ccccc1)C(=O)N[C@H](C(=O)N[C@@H](CC(N)=O)C(=O)N[C@@H](Cc1c[nH]c2ccccc12)C(=O)N[C@@H](CC(C)C)C(=O)N[C@@H](CC(C)C)C(=O)N[C@@H](C)C(=O)N[C@@H](CCC(N)=O)C(=O)N[C@@H](CO)C(=O)N1CCC[C@H]1C(=O)N[C@@H](CO)C(=O)N[C@@H](CO)C(=O)NCC(=O)N[C@@H](C)C(=O)N1CCC[C@H]1C(=O)N1CCC[C@H]1C(=O)N1CCC[C@H]1C(=O)N[C@@H](CO)C(N)=O)C(C)C
B3: Compound 94 (peptide)
peptide: [NMeY][Aib]EGTFISDYSI[Aib]K([AEEA-γGlu-γGlu-C15 diacid])DR[Aib]AQ[Aib]NFVNWLLAQRPSSGAPPPS-NH2
modifications: N-terminus assumed
SMILES: CC[C@H](C)[C@H](NC(=O)[C@H](Cc1ccccc1)NC(=O)[C@@H](NC(=O)CNC(=O)[C@H](CCC(=O)O)NC(=O)C(C)(C)NC(=O)[C@H](Cc1ccc(O)cc1)NC)[C@@H](C)O)C(=O)N[C@@H](CO)C(=O)N[C@@H](CC(=O)O)C(=O)N[C@@H](Cc1ccc(O)cc1)C(=O)N[C@@H](CO)C(=O)N[C@H](C(=O)NC(C)(C)C(=O)N[C@@H](CCCCNC(=O)COCCOCCNC(=O)CC[C@H](NC(=O)CC[C@H](NC(=O)CCCCCCCCCCCCCC(=O)O)C(=O)O)C(=O)O)C(=O)N[C@@H](CC(=O)O)C(=O)N[C@@H](CCCNC(=N)N)C(=O)NC(C)(C)C(=O)N[C@@H](C)C(=O)N[C@@H](CCC(N)=O)C(=O)NC(C)(C)C(=O)N[C@@H](CC(N)=O)C(=O)N[C@@H](Cc1ccccc1)C(=O)N[C@H](C(=O)N[C@@H](CC(N)=O)C(=O)N[C@@H](Cc1c[nH]c2ccccc12)C(=O)N[C@@H](CC(C)C)C(=O)N[C@@H](CC(C)C)C(=O)N[C@@H](C)C(=O)N[C@@H](CCC(N)=O)C(=O)N[C@@H](CCCNC(=N)N)C(=O)N1CCC[C@H]1C(=O)N[C@@H](CO)C(=O)N[C@@H](CO)C(=O)NCC(=O)N[C@@H](C)C(=O)N1CCC[C@H]1C(=O)N1CCC[C@H]1C(=O)N1CCC[C@H]1C(=O)N[C@@H](CO)C(N)=O)C(C)C)[C@@H](C)CC
B4: Compound 93 (peptide)
peptide: [NMeY][Aib]EGTFISDYSIALDR[Aib]AQ[Aib]K([AEEA-AEEA-γGlu-γGlu-C15 diacid])FVNWLLAQSPSSGAPPPS-NH2
modifications: N-terminus assumed
SMILES: CC[C@H](C)[C@H](NC(=O)[C@H](CO)NC(=O)[C@H](Cc1ccc(O)cc1)NC(=O)[C@H](CC(=O)O)NC(=O)[C@H](CO)NC(=O)[C@@H](NC(=O)[C@H](Cc1ccccc1)NC(=O)[C@@H](NC(=O)CNC(=O)[C@H](CCC(=O)O)NC(=O)C(C)(C)NC(=O)[C@H](Cc1ccc(O)cc1)NC)[C@@H](C)O)[C@@H](C)CC)C(=O)N[C@@H](C)C(=O)N[C@@H](CC(C)C)C(=O)N[C@@H](CC(=O)O)C(=O)N[C@@H](CCCNC(=N)N)C(=O)NC(C)(C)C(=O)N[C@@H](C)C(=O)N[C@@H](CCC(N)=O)C(=O)NC(C)(C)C(=O)N[C@@H](CCCCNC(=O)COCCOCCNC(=O)COCCOCCNC(=O)CC[C@H](NC(=O)CC[C@H](NC(=O)CCCCCCCCCCCCCC(=O)O)C(=O)O)C(=O)O)C(=O)N[C@@H](Cc1ccccc1)C(=O)N[C@H](C(=O)N[C@@H](CC(N)=O)C(=O)N[C@@H](Cc1c[nH]c2ccccc12)C(=O)N[C@@H](CC(C)C)C(=O)N[C@@H](CC(C)C)C(=O)N[C@@H](C)C(=O)N[C@@H](CCC(N)=O)C(=O)N[C@@H](CO)C(=O)N1CCC[C@H]1C(=O)N[C@@H](CO)C(=O)N[C@@H](CO)C(=O)NCC(=O)N[C@@H](C)C(=O)N1CCC[C@H]1C(=O)N1CCC[C@H]1C(=O)N1CCC[C@H]1C(=O)N[C@@H](CO)C(N)=O)C(C)C

Columns and labels:
[1] = biological target: full-length human GLP-1R with an N-terminal FLAG tag (human, UniProt P43220 24-463); assay: cell-based or functional assay
[2] = biological target: T1, full-length human GIPR with an …; assay: cell-based or functional assay

Row | Binder | Human GLP1R cAMP HEK293T EC50 [1] [nM] | Human GIPR cAMP, HEK293T EC50 [2] [nM]
1 | [NMeY][Aib]EGTFISDYSIALDR[Aib]AQ[Aib]KFVNWLLAQRGGGGS-NH2 (not fully specified (residue 21)) [Compound 96] | 89.1 | 0.0004
2 | [NMeY][Aib]EGTFISDYSIAK([GGEEE-C15 diacid])DR[Aib]AQ[Aib]NFVNWLLAQRPSSGAPPPS-NH2 [Compound 99] | 1000 | 0.0002
3 | B1 | 1000 | 0.0006
4 | B2 | 74.1 | 0.0013
5 | [NMeY][Aib]EGTFISDYSIAK([G5-γGlu-C15 diacid])DR[Aib]AQ[Aib]DFVNWLLAQRGGGGS-NH2 [Compound 97] | 490 | 0.0002
6 | B3 | 501 | 0.0006
7 | [NMeY][Aib]EGTFISDYSI[Aib]K([GGEEE-C15 diacid])DR[Aib]AQ[Aib]NFVNWLLAQRPSSGAPPPS-NH2 [Compound 95] | 537 | 0.0002
8 | B4 | 490 | 0.0002
